# Laboratory results reported in patent US11530240B2, “Catheter injectable cyclic peptide pro-gelators for myocardial tissue engineering” (The Regents of the University of California, priority 2017, dated 2022).
# Bridges are numbered along the chain shown (N, C = ends). Where no end group is shown, it is not given here. rhodamine = 5(6)-carboxytetramethylrhodamine label attached at the N-terminus
# Experiments:
# [1] = Viscoelastic measurements of functionalized SAP hydrogels (gel capacity); type: physicochemical; settings: 15 mg/mL in 1×DPBS, 2.5 rad/s
# Protocol: (§1) Rheological characterization. All peptide samples were prepared at 10 mM peptide, except for those used to assess the effect of SAP functionalization with respect to weight (15 mg/mL). Viscous and viscoelastic properties were assessed using a stress-controlled rheometer (TA Instruments AR-02) equipped with a Peltier plate to control temperature and a 20 mm diameter parallel plate geometry. Unless otherwise stated all measurements were taken at an angular frequency of 2.5 rad s^−1, strain of 0.5%, and temperature of 37° C. Measurements were performed with a gap height of 1000 μm and repeated three times (except for step-strain tests) to ensure reproducibility. To prevent water evaporation, mineral oil was wrapped around the edge of the geometry at the air-sample interface. For viscoelastic measurements the apparatus was used in oscillatory mode. […] The dynamic moduli of the hydrogels were measured as a function of frequency in the range 0_25-100 rad s^−1 at a strain of 0.5%. Continuous step-strain oscillations were used to monitor hydrogel healing through disruption (3 min, 100% strain) and recovery (15 min. 0.5% strain) cycles (n=3). Temperature sweeps were measured by increasing the apparatus temperatures from 21-40° C. at a ramp rate of 0.5° C./min. […] The viscosity of the samples was measured as a function of shear rate in the range 0.1-10 s^−1 (5% tolerance.
# [2] = molecular target: T1, Thermolysin (Bacillus thermoproteolyticus, UniProt P00800); experiment: Time course rheological analysis of bulk gelation after thermolysin addition; type: physicochemical; design: purchased Promega V400A; settings: 10 mM in 1×DPBS, thermolysin 1:4500 added at t=40 min, 37° C.
# T1 sequence (P00800 233-548): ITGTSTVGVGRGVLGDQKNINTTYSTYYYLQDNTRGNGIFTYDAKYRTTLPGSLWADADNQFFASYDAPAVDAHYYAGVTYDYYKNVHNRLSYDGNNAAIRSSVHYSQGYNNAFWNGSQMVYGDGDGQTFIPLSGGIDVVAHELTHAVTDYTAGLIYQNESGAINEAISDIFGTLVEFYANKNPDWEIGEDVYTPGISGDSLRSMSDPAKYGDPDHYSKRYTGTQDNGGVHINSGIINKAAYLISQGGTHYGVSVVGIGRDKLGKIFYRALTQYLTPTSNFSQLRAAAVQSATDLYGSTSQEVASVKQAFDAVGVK
# Protocol: as §1
# [3] = molecular target: T2, Porcine pancreatic elastase (Sus scrofa, UniProt P00772); experiment: In vitro enzyme cleavage of cyclic progelator by elastase; type: biochemical; settings: 1:250 enzyme/substrate, 5 hr; denatured enzyme elicited no response
# T2 construct: purchased EMD Millipore 3246821000U
# Source text: (§2) Transmission electron microscopy (TEM).
# (§3) In vitro enzyme cleavage of cyclic peptide progelator. […] Control samples utilized denatured enzymes under the same conditions.
# [4] = molecular target: T3, MMP-9 (recombinant human catalytic domain) (Homo sapiens, UniProt P14780); experiment: In vitro enzyme cleavage of cyclic progelator by MMP-9; type: biochemical; settings: 1:1000 enzyme/substrate, 5 hr; denatured enzyme elicited no response
# T3 construct: MMP-9 (recombinant human catalytic domain); purchased Enzo Life Sciences BML-SEro360
# Source text: as §2, §3
# [5] = molecular target: T1, Thermolysin; settings: 1:4500 enzyme/substrate
# Protocol: General information. […] Thermolysin (V400A) was acquired from Promega, as a lyophilized powder.
# In vitro enzyme cleavage of cyclic peptide progelator. Unless otherwise stated, enzyme cleavage experiments were performed on progelator at a final concentration of 500 μM in 1× enzyme cleavage buffers. […] Thermolysin cleavages were performed at 1:4500 enzyme/substrate molar ratio in 1× buffer (1×DPBS, pH 7.4) for 15 min. […] Control samples utilized denatured enzymes under the same conditions. […] Thermolysin was inactivated by incubation with 10% (v/v) EDTA (0.5 M, pH 8.0)
# [6] = test system: red blood cells (RBCs); experiment: Hemolysis of red blood cells (RBCs); type: cell-based, human; settings: positive (normalization) control 1% Triton X-100; isolated RBCs, 1 hr incubation; n=4
# Protocol: (§4) Hemocompatibility analysis.
# Hemolysis assay. Acute toxicity of cyclic peptide progelator was measured with a RBC hemolysis assay specific to biomacromolecular drug analysis, as previously described.^73 Averages (n=4) and standard error of the mean (SEM) for absorbance measurements (at 540 nm) were plotted.
# [7] = test system: whole human blood; experiment: Whole blood hemostasis kinetics (non-activated whole blood clotting assay); settings: positive controls; recalcified whole human blood
# Protocol: as §4
# Whole blood hemostasis kinetics. Changes to time-dependent hemostasis were monitored using a non-activated whole blood clotting assay.^72 Briefly, 100 μL of citrated whole human was mixed with 10 μL of peptide or collagen stock (11.5× final blood concentration) and 5 μL of CaCl2 (230 mM). Collagen (0.095 mg/mL) and glass coverslips were used as positive controls to increase clotting rates from an additive and contact initiated perspective, respectively. […] Aliquots (100 μL) were transferred to a 12-well TCP, covered, and incubated at r.t. for 5 min, 15 min, 30 min, and 45 min. Each sample was prepared in triplicate. At the end of each time point, RBCs not caught in the thrombus were lysed by gently adding 3 mL distilled H2O and incubating for 5 min. Each well was sampled (200 μL), taking care not to disturb the clot, and transferred to a 96 well plate for analysis. Released hemoglobin from lysis was detected by measuring the absorbance at 405 nm (height 4.0 mm, 100 flashes) using a plate reader. Extent of clotting is inversely proportional to measured absorbance. Averages (n=3) and standard error of the mean (SEM) are plotted.
# [8] = test system: whole human blood; experiment: Activated clotting times (ACT) with whole human blood; settings: positive control, collagen 0.095 mg/mL
# Protocol: as §4
# Activated clotting times (ACT) with whole human blood. A Hemochron 801 instrument calibrated with an electronic system verification (ESV) device was used to measure activated clotting time (ACT) of whole human blood. Activated clotting times (ACT) were determined using recalcified citrated whole human blood to minimize variability in starting time points for clotting in all assays.^71 To each Hemochron P214 tube with glass beads was added 4 μL CaCl2 (1.1 M) and 36 μL peptide stock or additive (12.2× final blood concentration). Samples were mixed thoroughly for 30 s to soak the glass beads and incubated 30 s at 37° C. Citrated whole human blood (400 μL) was then added (t=0 s), mixed by hand for 10 s, and added to the instrument. Time points at which the magnet was displaced by clot formation were recorded by the instrument. Collagen (0.095 mg/mL) was used as a positive control to […] clotting time. Vehicle (1×DPBS) served as a standard for blood without additive. Samples without calcium, serving as the negative control, exceeded instrument maximum time range (>1500 sec). Each experiment was performed n=6 times with averages and standard error of the mean (SEM) plotted.
# T3 sequence (P14780 107-444 limits assumed): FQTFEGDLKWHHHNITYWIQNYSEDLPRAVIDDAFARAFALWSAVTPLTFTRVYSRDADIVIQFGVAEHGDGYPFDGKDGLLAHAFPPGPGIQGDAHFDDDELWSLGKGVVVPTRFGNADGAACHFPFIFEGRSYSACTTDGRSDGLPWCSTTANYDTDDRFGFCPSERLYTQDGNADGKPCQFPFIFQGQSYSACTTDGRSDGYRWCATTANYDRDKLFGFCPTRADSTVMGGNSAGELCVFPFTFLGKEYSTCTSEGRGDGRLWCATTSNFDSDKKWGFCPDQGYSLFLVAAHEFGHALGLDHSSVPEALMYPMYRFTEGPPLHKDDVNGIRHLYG
# T2 sequence (P00772 27-266): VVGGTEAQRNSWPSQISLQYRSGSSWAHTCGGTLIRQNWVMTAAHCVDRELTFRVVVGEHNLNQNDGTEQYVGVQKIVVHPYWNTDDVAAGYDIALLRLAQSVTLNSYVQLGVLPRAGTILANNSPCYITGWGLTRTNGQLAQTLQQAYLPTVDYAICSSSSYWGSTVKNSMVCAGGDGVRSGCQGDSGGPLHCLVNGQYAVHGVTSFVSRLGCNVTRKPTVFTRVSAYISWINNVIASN
substance,measurement,setting,value
"C(KFDF)3PLGLAGC (SEQ ID NO: 7) (CKFDFKFDFKFDFPLGLAGC) [KFDF (SEQ ID NO:1)Linear, modified linear SAP primed for cyclization, no fluorescent label]",gelling capacity (tanδ<1) and strain tolerance vs unmodified SAP,[1],no significant disruptive effects to gelling capacity
"C(KLDL)3PLGLAGC (SEQ ID NO: 6) (CKLDLKLDLKLDLPLGLAGC) [KLDL (SEQ ID NO:5)Linear, modified linear SAP primed for cyclization, no fluorescent label]",gelling capacity (tanδ<1) and strain tolerance vs unmodified SAP,[1],no significant disruptive effects to gelling capacity
"CKLDLKLDLKLDLPLGLAGC (SEQ ID NO:6) (disulfide 1-20) [KLDL (SEQ ID NO:5)Cyclic, unlabeled cyclized enzyme-responsive progelator]","time at which steady state of shear moduli (G′, G″) was reached",[2],200 min
Rho-KFDF (SEQ ID NO:1)Cyclic: rhodamine labeled cyclized KFDF progelator (SEQ ID NO:7) (rhodamine-CKFDFKFDFKFDFPLGLAGC; disulfide 1-20),"response to active elastase cleavage (visual, TEM)",[3],induced visible aggregation in the reaction vial and entangled fibrous meshes by TEM
same,"response to active MMP-9 cleavage (visual, TEM)",[4],induced visible aggregation in the reaction vial and entangled fibrous meshes by TEM
same,response to thermolysin incubation (TEM),[5],induced fiber formation by TEM
Rho-KLDL (SEQ ID NO:5)Cyclic: rhodamine labeled cyclized KLDL progelator (SEQ ID NO:6) (rhodamine-CKLDLKLDLKLDLPLGLAGC; disulfide 1-20),"response to active elastase cleavage (visual, TEM)",[3],induced visible aggregation in the reaction vial and entangled fibrous meshes by TEM
same,"response to active MMP-9 cleavage (visual, TEM)",[4],induced visible aggregation in the reaction vial and entangled fibrous meshes by TEM
same,response to thermolysin incubation (TEM),[5],induced fiber formation by TEM
Triton X-100 [1% Triton X-100],% Hemolysis,[6],100.00%
collagen [reference compound],clot rate (hemostasis kinetics),[7],increased the clot rate
same,effect on clot time vs vehicle (ACT),[8],significant clot time reduction
same,"Activated clotting time (ACT), Average Time","[8]; whole human blood, n=6",150 s
